B1: rAGR2: human recombinant AGR2 protein (ab64013, AbCam) (protein)
chain: RDTTVKPGAKKDTKDSRPKLPQTLSRGWGDQLIWTQTYEEALYKSKTSNKPLMIIHHLDECPHSQALKKVFAENKEIQKLAEQFVLLNLVYETTDKHLSPDGQYVPRIMFVDPSLTVRADITGRYSNRLYAYEPADTALLLDNMKKALKLLKTEL
B2: 162-1A-1: mouse monoclonal blocking antibody against C4.4A, IgG2b/kappa, VH SEQ ID NO: 10, VL SEQ ID NO: 11 (antibody, V domains shown)
VH: MNFGLSLIFLVLILKGVQCEVMLVESGGGLVKPGGSLKLSCAASGFTFSSYTMSWVRQTPEKRLEWVASISSGGGNTYYADSVKGRFTMSRDNAKNNLYLQMSSLRSEDTALYYCARSYYYGISYDTYWGQGTLVTVSA
VL: MKLPVRLLVLMFWIPASNSDVVMTQTPLSLPVSLGDQASISCRSSQNLVHSDGNTYLHWYLQKPGQSPKLLIYKVSNRFSGVPDRFSGSGSGTDFTLKISRVEAEDLGVYFCSQSTHVPYTFGGGTKLEIK

Legend:
AsPC-1 cells [1] = assay: Cell proliferation (MTS assay) with rAGR2; type: cell-based; conditions: AsPC-1, rAGR2 0-500 nM, concentration-dependent
Protocol: (§1) Cell growth, migration, invasion and apoptosis assays. Wild-type and siRNA transfected PDAC cells were grown with rAGR2 (0-500 nM) in the presence and absence of antibodies (polyclonal commercial or newly developed mAbs) (1 μM). The medium was refreshed daily. Cell numbers were estimated after 48 h by MTS assay as described previously (Ramachandran et al., 2007). In order to avoid the differences in basal values for each cell line, the data are presented as the percent of viable cells compared to the appropriate controls. Migration and invasion assays were conducted at 24 h as described previously (Ramachandran et al., 2007). Apoptosis assays were conducted 72 h after adding Gemcitabine (Gem) to Gem-sensitive BxPC-3 cells (1 μM) and Gem-resistant AsPC-1 cells (5 μM) (Arumugam et al., 2009) as described previously (Ramachandran et al., 2008). Because siRNA transfection itself induced basal apoptosis, cells transfected with siRNAs were treated with a lower concentration of Gem (BxPC3: 0.5 μM; AsPC-1: 1 μM).

AsPC-1 cells [2] = assay: Migration assay with rAGR2; type: cell-based; conditions: AsPC-1, rAGR2 0-500 nM
Protocol: as §1

AsPC-1 cells [3] = assay: Invasion assay with rAGR2; type: cell-based; conditions: AsPC-1, rAGR2 0-500 nM
Protocol: as §1

AsPC-1 cells [4] = assay: Apoptosis assay (Gem, rAGR2, antibodies); type: cell-based
Protocol: FIGS. 11A-D. Monoclonal antibodies developed bind respectively to AGR2 and C4.4A proteins and blocked their functions. From the endogenous lysate (SU86.86/Panc-1), AGR2 (18 kD) and C4.4A (50 kD) were identified by a panel of mAbs. […] Extra bands identified with the endogenous protein were re-confirmed with the recombinant protein. For apoptosis studies, AsPC-1 cells were treated without or with Gem (0.5 μM) and rAGR2 (100 nM) and with purified (A) AGR2 and (B) C4.4A Abs (1 μM). Commercially available Abs served as control. […] Horizontal line represents median apoptotic value. Data shown are mean±SE for 3 experiments (*p<0.05). (C,D) Binding assays were conducted with purified (C) AGR2 and (D) C4.4A Abs as selected from the apoptosis assay as having high blocking efficiency. ELISA assays were conducted by coating antigenic peptide (0.5 μg) and probed with respective purified Abs. Data shown are mean±SE for 3 experiments (*p <0.05). Based on high specificity and binding, clone 28B for AGR2 and 1A for C4.4A were selected. Purified Abs were also run on 4-20% gradient gel to check for the presence of heavy (50 kD) and light chains (25 kD).
(§2) Cell growth, migration, invasion and apoptosis assays. Wild-type and siRNA transfected PDAC cells were grown with rAGR2 (0-500 nM) in the presence and absence of antibodies (polyclonal commercial or newly developed mAbs) (1 μM). The medium was refreshed daily. […]

BxPC-3 cells [5] = assay: Cell proliferation with rAGR2; type: cell-based; conditions: BxPC-3, rAGR2 dose-dependent
Protocol: (§3) FIGS. 7A-D. Extracellular rAGR2-mediated functions. (A) Pancreatic cancer cells (BxPC-3 and MiaPaCa-2) were used for these studies. Extracellular addition of rAGR2 caused a significant dose-dependent increase in proliferation (BxPC-3-3-fold increase; MiaPaCa-2-4-fold increase; p<0.05). Pancreatic cancer cells were plated (2×10^4 cells) with and without rAGR2 (0-100 nM) on a Boyden's chamber for migration studies (B) and on an invasion chamber for invasion studies (C). After 22 h, cells were fixed with methanol and stained by hematoxylin, and cells in 10 random fields at 100× magnification were photographed and counted. Extracellular addition of rAGR2 caused a significant dose-dependent increase in migration (BxPC-3-7-fold increase; MiaPaCa-2-3-fold increase) and invasion (BxPC-3-10-fold increase; MiaPaCa-2-3-fold increase). (D) For analysis of apoptosis, BxPC-3 cells were treated with and without Gem (1 μM) and AGR2 (100 nM). […] Data shown are mean±SE for 3 experiments (*p<0.05 vs. control).
as §2, with “daily. Cell numbers were estimated after 48 h by MTS assay as described previously (Ramachandran et al., 2007).” for “daily.”

MiaPaCa-2 cells [6] = assay: Cell proliferation with rAGR2; type: cell-based; conditions: MiaPaCa-2, rAGR2 dose-dependent
Protocol: as §3
as §2, with “daily. Cell numbers were estimated after 48 h by MTS assay as described previously (Ramachandran et al., 2007).” for “daily.”

BxPC-3 cells [7] = assay: Migration (Boyden's chamber) with rAGR2; type: cell-based; conditions: BxPC-3, rAGR2 0-100 nM, 22 h
Protocol: as §3
as §2, with “daily. Cell numbers were estimated after 48 h by MTS assay as described previously (Ramachandran et al., 2007).” for “daily.”

MiaPaCa-2 cells [8] = assay: Migration (Boyden's chamber) with rAGR2; type: cell-based; conditions: MiaPaCa-2, rAGR2 0-100 nM, 22 h
Protocol: as §3
as §2, with “daily. Cell numbers were estimated after 48 h by MTS assay as described previously (Ramachandran et al., 2007).” for “daily.”

BxPC-3 cells [9] = assay: Invasion chamber assay with rAGR2; type: cell-based; conditions: BxPC-3, rAGR2 0-100 nM, 22 h
Protocol: as §3
as §2, with “daily. Cell numbers were estimated after 48 h by MTS assay as described previously (Ramachandran et al., 2007).” for “daily.”

MiaPaCa-2 cells [10] = assay: Invasion chamber assay with rAGR2; type: cell-based; conditions: MiaPaCa-2, rAGR2 0-100 nM, 22 h
Protocol: as §3
as §2, with “daily. Cell numbers were estimated after 48 h by MTS assay as described previously (Ramachandran et al., 2007).” for “daily.”

BxPC-3 cells [11] = assay: Apoptosis assay (Gem, rAGR2); type: cell-based; conditions: BxPC-3, Gem 1 μM, AGR2 100 nM
Protocol: as §3
as §2, with “daily. Cell numbers were estimated after 48 h by MTS assay as described previously (Ramachandran et al., 2007).” for “daily.”

PDAC cell = assay: Blocking of basal and AGR2-stimulated PDAC cell migration by antibodies; type: cell-based; conditions: antibodies 1 μM, compared to non-specific antibody
Protocol: as §1
Blocking monoclonal antibody development. Mouse monoclonal antibodies (mAbs) against AGR2 and C4.4A were developed in the Monoclonal Antibody Core of UT MDACC using unconjugated antigenic peptides. Several hybridoma colonies (2400 for each antibody) were screened for target recognition by ELISA using KLH-conjugated peptides. […]

Capan-2 cells [12] = assay: Model 2 Capan-2 stromal model, orthotopic tumors; type: in vivo, athymic nude mice
Protocol: (§4) In vivo studies. In vivo experiments were conducted with athymic nude mice (B6.Cg-Foxn1^nu/J—female—age 9 weeks) (NCI, Bethesda, Md.) according to the UT MDACC regulatory standards and IUCAC committee approval. Orthotopic tumors were developed with luciferase-labeled cells (0.25×10^6). IgG (Cat #OB010701; Southern Biotech, Birmingham, Ala.) served as a control Ab.

Capan-2 cells [13] = assay: Model 3 Capan-2 regression studies, orthotopic tumors; type: in vivo, athymic nude mice; conditions: 15 mg/kg single mAb or 7.5 mg each in combination, twice a week i.p.
Protocol: Immunohistochemical (IHC) staining. […] Results were blindly evaluated by a pathologist and expression levels were categorized as positive or negative (cytoplasmic staining of >10% or <10% of the tumor cells, respectively) and staining intensity as strong, moderate, or no staining. Apoptotic cells were detected in paraffin sections by fluorescence-labeled TUNEL staining (Promega, Cat #G3250).
as §4
Tumor growth and metastasis were measured weekly with the IVIS® live animal bioluminescence imaging system after injecting luciferin substrate (Xenogen, Alameda, Calif.). The number of mice surviving was recorded each week and shown as the percent of the original group size.

Molecule | increased proliferation (AsPC-1 cells [1]) [fold] | increased migration (AsPC-1 cells [2]) [fold] | increased invasion (AsPC-1 cells [3]) [fold] | reduction of the effect of Gem (apoptosis) (AsPC-1 cells [4]; AsPC-1, simultaneous rAGR2 with 5 μM Gem) [%] | increase in proliferation (BxPC-3 cells [5]) [fold] | increase in proliferation (MiaPaCa-2 cells [6]) [fold] | increase in migration (BxPC-3 cells [7]) [fold] | increase in migration (MiaPaCa-2 cells [8]) [fold] | increase in invasion (BxPC-3 cells [9]) [fold] | increase in invasion (MiaPaCa-2 cells [10]) [fold] | reduction of Gem induced apoptosis (BxPC-3 cells [11]) [%] | AGR2-mediated survival effects (Gem-induced apoptosis) (AsPC-1 cells [4]; AsPC-1, Gem, rAGR2 100 nM, Abs 1 μM) | basal and AGR2-mediated stimulation in migration (PDAC cell) | Median survival (Capan-2 cells [12]; 15 mg/kg twice a week i.p.) [weeks] | mice surviving (Capan-2 cells [12]; at nine weeks (seven weeks of treatment), when all control Ab mice had died, 15 mg/kg twice a week i.p.) [%] | mice with complete tumor regression (Capan-2 cells [12]; bioluminescence imaging, confirmed by surgical examination) | reduction of tumor volume (Capan-2 cells [12]; compared to control Ab, bioluminescence) [%] | mice surviving after week 63 (Capan-2 cells [12]; treatment stopped after 15 weeks, no evidence of tumor) | Median survival times (Capan-2 cells [13]) [weeks]
B1 | 3 | 10 | 3 | > 50 | 3 | 4 | 7 | 3 | 10 | 3 | 50 | – | – | – | – | – | – | – | –
B2 | – | – | – | – | – | – | – | – | – | – | – | abolished | abolished | 10 | 57 | 3/7 | 50 | one | 12
